Assay results as given in article PMC2601033.

Assays:
Assay in all cases: SPR
Settings in all cases: biotin (Biotin DecaLabel); SPR: PBS + 0.05% Tween 20, 25 C, 10 ul/min, SA chip (BIAcore 3000); ELISA: DNA coated at 10 ug/ml in Reacti-bind DNA coating solution, anti-GST detection …
[1] = test system: APL_1406, GST removed (Actinobacillus pleuropneumoniae serovar 15 HS143?)
[2] = test system: Aa1426, GST removed (Aggregatibacter (Actinobacillus) actinomycetemcomitans HK1651 (JP2 clone)?)
[3] = test system: ComE1 (PM1665), GST removed (Pasteurella multocida NCTC 10322/ATCC 43137?)
[4] = test system: Hi1008, GST removed (Haemophilus influenzae NCTC 8470/ATCC 9332 Pittman type D?)
[5] = test system: Ms0826, GST removed (M. succiniproducens)

pUC19 (biotinylated)
Kd [1]: 4 µM | Kd [2]: 16 µM | Kd [3]: 7.3 µM | Kd [4]: 5 µM | Kd [5]: 46 µM
